Measured values: a protein production outcome set (Wang et al. 2014)

Experiment: label from the status in PepcDB records

Sequence | protein production
MTSPENPDLPDADDAYVDSGPGTQPASLEDLDMDSASTMRPMATQAVYRPEFDDTDGTSRGTVVTEAYDQVTMATRALSPMRRLGGGLVEIPRVPERDPLTALMTNPVVAESKRFCWNCGKPVGRSTPDGRALSEGWCPHCGSPYSFLPQLSPGDIVADQYEIKGCIAHGGLGWVYLAFDKNVNDRPVVLKGLVHSGDAEAQAIAMAERQFLAEVTHPGIVKIYNFVEHEDKHGNPVGYIVMEYVGGTSLKQARGAKLPVAEAIGYMLEILPALGYLHSIGLAYNDLKPENIMITEEQLKLIDLGAVSRLNSYGYLYGTPGYQAPEIVRTGPTVATDIYTVGRTLAALTLSLRTRRGRYVDGLPSDDPVLETYDSYHRLLRRAIDPDPRRRFTSAEEMSSQLLGVLREVVATDTGVPRPGLSTVFSPSRSTFGVDLLVAHTDVYVDGQVHSEKLTAQEIVRALPVPLVDRTDVGAPMLVASVLSEPVHTLDQLRAARHGALDTEGIDLNESVELPLMEVRALLDLGDVAKATRKLEDLAARVGWRWRLVWFKAVSEMLSADYDSATKHFTEVLDTLPGELAPKLALAATAELAGTADELKFYKTVWSTDNGVISAGFGLARAQSVAGERDMAVQTLDEVPPTSRHFTTARLTSAVTLLSGRSTSEITEQHIRDAARRVEALPDSEPRVLQIRALVLGTALDWLADNTASSNHILGFPFTEHGLKLGVEASLRALARIAPTQSHRYALVDLANSVRPMSTF | failed
MSQEAFENKLYANLEAVIDPELGVDIVNLGLVYDVTADENNNAVITMTMTSIGCPMAGQIVSDVKKVLSTNVPEVNEIEVNVVWNPPWSKERMSRMAKIALGIRD | not failed
MSNSHPLRPFTAVGEIDHVHILSEHIGALLIGEEYGDVTFVVEKKRFPAHRVILAARCQYFRALLYGGMRESQPEAEIPLQDTTAEAFTMLLRYIYTGRATLTDEKEEVLLDFLSLAHKYGFPELEDSTSEYLCTILNIQNVCMTFDVASLYSLPKLTCMCCMFMDRNAQEVLASDGFLSLSKTALLNIVLRDSFAAPEKDIFLALLNWCKHNAKENHAEIMQAVRLPLMSLTELLNVVRPSGLLSPDAILDAIKVRSESRDMDLNYRGMLIPEENIATMKYGAQVVKGELKSALLDGDTQNYDLDHGFSRHPIDDDCRSGIEIKLGQPSIINHIRLLLWDRDSRSYSYFIEVSMDELDWIRVIDHSHYLCRSWQKLYFPARVCRYIRIVGTHNTVNKIFHIVAFECMFTNKAFTLEKGLIAPMENVATIADCASVIEGVSRSRNALLNGDTKNYDWDSGYTCHQLGSGAIVVQLAQPYMIGSIRLLLWDCDDRSYSYYVEVSTNQQQWTMVADRTKVSCKSWQSVTFERQPASFIRIVGTHNTANEVFHCVHFECPEQQSTQKEDSSEEPGTGDLSTPSQQLDPHAPRAPSASSLPPSPGPNLHSPNQQNQ | failed
MKPVKVGICGLGTVGGGTFNVLQRNAEEIARRAGRGIEVAQIAVRTPNPNCQIGSTPTTSDVFAVATNPEIDIVVELIGGYTLARELVLKAIENGKHVVTANKALIAVHGNEIFAKAREKGVIVAFEAAVAGGIPVIKAIREGLSANRINWVAGIINGTGNFILTEMREKGRTFPDVLAEAQALGYAEVDPTFDVEGIDAAHKLTILASIAFGIPLQFDKAYTEGITKLTTADVNYAEALGYRIKHLGVARSTAQGIELRVHPTLIPADRLIANVNGVMNAVMVNGDASGSTLFYGAGAGMEPTASSVVADLVDVVRAMTSDPENRVPHLAFQPDSLSAHPILPIEACESAYYLRIQAKDHPGVLAQVASILSERGINIESIMQKEVEEHDGLVPMILLTHRVVEQRINDAIQALEALQDVVGPVVRIRVEHLN | not failed
MSMKRSREESQGGGNHNRFVDEGPRLNLPLTKTPELINKIESYLKVHYTCPHQQTENSSKTSTLPKSPEKLKAMNFPISTIKIGDCVFVAKNPDDIVAKFYFAKKKLLWEFLFGEPVANMPRLKSKIEIQWNDVSSFEESINSRDETGILKIELKKRPTFFTETNPQAGKHTQWKQLDYDFTGDQASYYRRHTLHFPPGVLQKNLEKLLTDSFWSKLYKVPFPVHESLYFDIGFENNNSSNGHSKTVGFNVNNGLQHDFSQVRDLKERKKIITLIGIGGVGEGEGNFSMANGGWQRNSYSHVNSLNYNTDNGLLGMQAIPPSSQVANEHYNNTQNDYTGSQFGYRMNQDEIQKMQRIGKILESQAYAVPDTQTKLTSSGMNNGPMYPPAGSYLESRLLEEWYEHTRRFQQ | not failed
MQITAAAQHDYQQAIAAYQAGEFEAAIAQLDRLLGDVPDWAAALGLQGLCYYCCDQRETGITLLRRAIALDPTDPTHFNNLGNLLQRQGHLTEALERLTQALAIDPTHVAARFNRAITLQKLGDPATALQDYQQLLEADPDNPEIRYNSAHAALAIGDWDFGLPAYEARCQQLQHFPEIEASLKLPRWQGQDLDQQTLLVWGEQGFGDRLMGARWIPLLRQRYPQARIVWQTSPSLVRLFQTLADDRLMVLAEGAELPVCDWQVPLLSLMLIFQSDRNRLPWHGPYFFPHKGDFLPASDRPRLGLVWSAGRNPAQSAEFAANKSCPLALLWSVLSVSGWDVVSLQVDEARQDLQTLSDPLLDLGSEIGDFQDTVDRLAHLDLLITVDTAIAHLGGMIGLPTWVLLPAVPDWRWELSGATTPWYPSLRLFRQPSPGDWSGAIAELQTALAEFQPAPQHWDYRGELSIADWIQAADRAFTAQNWPRAEWLIRQAVAIAPEEPSFHRALGRSLKQQGDYAGAAQALAIACELAPTQAEFWHERSSLEYYDNQLTAALNSLNQAIALQGATADHLISRGVLHYRLGQFPESCADYDAAAAIAPESPLLRCNRGFLQLHWGNWLQGWPDLEVRFDFQSDLDPFQYRQLAPAWQGEPLGQQTLLIWGEQGLGDHLLFCRWLPELRLQHPQAQLIFVTDPLLERLMQQLADDRLQICCLDEPVPACDRQVALMSLPAIAQTTPATVPWRGAYFQSSMPPLRCAETLQVGFVWASGKRSSPETARLYREKSCPLNELLPALLAVPAVDYYSFQVGADVAELQPWLEQSDRLFDLSEQLQDFQDTADWLAEMDVLISVDTAVANLAGMMALPVWTLLPEPANWRWGLTGHTTPWYPSMRLYRQTQRGNWSGAIAQIQQDLQQLSRDRDCLVT | failed
MATLYDAPVDELIDELAADLETRLDEPDWANYAKTGAGRELPPEQSDFWATRAASLLRKVAIDGPIGVKRLSEAYGSTTSGSNRYVVAPSTTTAGSRNIVRTILQQLEAEGLVEQQHDHGRVVTGDGRSLLDETAGDVIESLDRPELERYA | failed
MGLKNIVVFVEPSNAGATRARYAVELARRHGAHLIGIFVASSDGPIPANAYVRGRDAMRRLIELHDANAIETTSVASRNFNTATNSADITYEFRIIREIESDDTKLHCLHADLVIVGHPRPGGLPLYSSAEGLLLATGIPFLIVPDGWPSGAVAQRVLLAWNASREARRAITDSLPLLSAAQSVSIVVIDSAKNRLHGENPGADVAVYLSRHGAHVTTEQIDSNGSPIADVILQHAVHGGFDLIVLGAYSHARVREAVFGGVTRSLLKLATIPMLIAH | failed
MESFSSKSLALQAEKKLLSKMAGRSVAHLFIDETSSEVLDELYRVSKEYTHSRPQAQRVIKDLIKVAIKVAVLHRNGSFGPSELALATRFRQKLRQGAMTALSFGEVDFTFEAAVLAGLLTECRDVLLELVEHHLTPKSHGRIRHVFDHFSDPGLLTALYGPDFTQHLGKICDGLRKLLDEGKL | failed
MRFLFSLIGLVYSSLIKLAVPFNPKARMMVRGRWKVWRQLREGIVPGGRYIWFHAASLGEFEQGRPMIERIRSEYPDYRIVLTFFSPSGYEVRKNYEGADVIVYLPADRLPRVRKFLDLVKPEMAIFIKYDFWPCFLTELERRQIPTYLVSSIFRPSQLFFRWYGGAYKRLLHCFTHIFVQDKASRLLLEKHGIDHVSVAGDTRFDRVISVYEARKSLPLIERFAASVPEDGLVIVGGSSWPPDEEILVRYFNRNPKIKLILAPHEIDKEHLLQIISHIRRPFIRLSEATESDIARQDCLIVDSFGLLSSIYRYGQVAFIGGGFGKGIHNTPEAAVYGIPVIFGPRYEKFKEARELIDVGGGFSVSSAEEFGNLIKRIQTDKAYRDAASRAAADYIRSNAGATGYIVHRIMKLEHHHHHH | not failed
MSAYDNVIGGKLKLKGKALDVKAGGVKKKKKHKRQEEQALKITDHELIEGESTEALGKLIEGEEGDEEMNRSEKASEDAKLQQQLDDDDHLTPAERRYIEQKQRLDVQKLAKEANKSHRNRIEDFNQYLANMSEHYDIPKVGPG | failed
MTVKAVFFDIDGTLLNDRKNIQKTTQKAIQQLKKQGIMVGLATGRGPGFVQPFLENFGLDFAVTYNGQYILTRDKVLYQNQLPKSMIYKVIRYANEKKREISLGTASGLAGSRIIDMGTSPFGQVISSFVPKSWARTVEGSFKHLIRRIKPQSFRNLVTIMREPIYQVVLVASQAETKKIQEKFPHIKITRSSPYSLDLISVDQSKIKGIERLGEMFGFDLSEVMAFGDSDNDLEMLSGVGIGIAMGNAETVVKDGAHFTTDSNNNDGISKALAHYGLIH | failed
MGKVSSLKLKTNRRCIYITTIKEITEAIKADPDNAEYTAKGWDPLFHVLPTATILVISQAPGRIAQNTKTYFNDASGDRLRDWMGVTREQFYQSDRIAVMPLDFYYPGKGKSGDLPPRKGFMDKWHEPLLAMMPNVQLTLLVGQYAIKAYLGRSRQKTLTATVQNYQDYLPDYFPLVHPSPLNYGWQKKNPWFQATVVPDLQRRVQIALK | failed
MHSNSWMSCKAVDNAEKEALLLQLQADADGPRRRCEIRERSLGQAVMLALLSLLLVLLGGWLASLPSAWQLRSAQLWFWLPGALMLGAGLVGLAAAEALRRRHGQQVLALTPDTLQFANAPDPTPWVCFDGFELEQRYLSLGLVFSVIAGSRAPALAPACFKSLAAPHAWPVAAGMRVRLWLFNPMLDGQRLDFQALTDLLYAYLNAAQARSTLGQLFPEVQRVGATQ | failed
MFRPENVQALAGLALTLGLCWLVSENRKRFPWGLAIGAVVIQVLLVLVLFGLPQAQQMLRGVNGAVEGLAASTQAGTAFVFGFLAGGDQPYPVSNPGAGFIFAFRVLPVILVVCALSALLWHWKILKWLAQGFGFVFQKTLGLRGPPALATAATIFMGQVEGPIFIRAYLDKLSRSELFMLIAVGMACVSGSTMVAYATILADVLPNAAAHVLTASIISAPAGVLLARIIVPSDPMEKSADLDLSTEDKTYGSSIDAVMKGTTDGLQIALNVGATLIVFVALATMVDKVLGAFPPVGGEPLSIARGLGVVFAPLAWSMGIPWKEAGTAGGLLGVKLILTEFTAFIQLSKVGEALLDERTRMIMTYALCGFANIGSVGMNVAGFSVLVPQRRQEVLGLVWKAMMAGFLATCLTASLVGLMPRSLFGL | failed
MAVYNPKPEFFRQAVLSVLGQTMPVLELVLVNDGGSDEFKSVLPDDDRIRVFTKPNEGVAATRNFAIKQCRGEYIAFLDQDDYWYSDKLAEQMAMISVKGEACMVISPVDIVDNQGVPIIKQNRKKVTNRYFRKIAHPDIRFPLADGNFIYSSTPLIHRRVFECVGLFDSFTQPHDDWDMYLRIALAGISVHCYRERALSVWRMHDSNESQKRMAMMLSKCEVEWKILQGGVPEPVAKIMHSNLALDQIVMDNLWYNEREFARFRETVRRDLPGLMRCAVNSGRHDRYVTGYRKRAASAIIKSARRYLLSLFSRQR | failed
MSSKQWRWIPNALTFLRMVLIVPFAGALLEGNYRLSLVIFFVAALTDAFDGFLARHFNWRSRLGAVADPLADKALLISAYLMLTITGVLPLWLFALVLGRDLVIVCGGLAFHYGIGRFDMEPSIPGKINTFVQILVALAIIILLAGLPMQPWVIDTGIWLVAVSALVSGGHYVAVWSLRAWRAKRS | failed
MTLEWEEFLDPYIQAVGELKIKLRGIRKQYRKQNKHSPIEFVTGRVKPIESIKEKMARRGITYATLEHDLQDIAGLRVMVQFVDDVKEVVDILHKRQDMRIIQERDYITHRKASGYRSYHVVVEYTVDTINGAKTILAEIQIRTLAMNFWATIEHSLNYKYQGDFPDEIKKRLEITARIAHQLDEEMGEIRDDIQEAQALFDPLSRKLNDGVGNSDDTDEEYR | not failed
